Laboratory results published in article PMC8826823, “The Zinc Finger Transcription Factor BbCmr1 Regulates Conidium Maturation in Beauveria bassiana”.

B1: BbbrlA promoter probe (brlA-EMSA) (dsDNA)
DNA 1: GGAAAAAAAAAAAAGAAAAGGAACCCACAACTCAAGTCT
DNA 2: AGACTTGAGTTGTGGGTTCCTTTTCTTTTTTTTTTTTCC
B2: Bbcmr1 promoter probe (cmr1-EMSA) (dsDNA)
DNA 1: CGGAATTACGATATTACCCCTAGAGACAATTTTTATTATA
DNA 2: TATAATAAAAATTGTCTCTAGGGGTAATATCGTAATTCCG

Columns and labels:
BbCmr1 = biological target: T1, BbCmr1 (Beauveria bassiana, UniProt J4VZG7 1-764); test: EMSA; 0.5-2 ug protein, 10 ng probe; concentration-dependent; complex decreased by 200-800-fold unlabeled probe; LightShift Chemiluminescent EMSA kit, manufacturer's instructions; buffer, salt, pH and temperature not given; conditions: protein: recombinant; tags: N-terminal GST (pGEX-6p); chain copies: 2; label: biotin; blunt
T1 sequence: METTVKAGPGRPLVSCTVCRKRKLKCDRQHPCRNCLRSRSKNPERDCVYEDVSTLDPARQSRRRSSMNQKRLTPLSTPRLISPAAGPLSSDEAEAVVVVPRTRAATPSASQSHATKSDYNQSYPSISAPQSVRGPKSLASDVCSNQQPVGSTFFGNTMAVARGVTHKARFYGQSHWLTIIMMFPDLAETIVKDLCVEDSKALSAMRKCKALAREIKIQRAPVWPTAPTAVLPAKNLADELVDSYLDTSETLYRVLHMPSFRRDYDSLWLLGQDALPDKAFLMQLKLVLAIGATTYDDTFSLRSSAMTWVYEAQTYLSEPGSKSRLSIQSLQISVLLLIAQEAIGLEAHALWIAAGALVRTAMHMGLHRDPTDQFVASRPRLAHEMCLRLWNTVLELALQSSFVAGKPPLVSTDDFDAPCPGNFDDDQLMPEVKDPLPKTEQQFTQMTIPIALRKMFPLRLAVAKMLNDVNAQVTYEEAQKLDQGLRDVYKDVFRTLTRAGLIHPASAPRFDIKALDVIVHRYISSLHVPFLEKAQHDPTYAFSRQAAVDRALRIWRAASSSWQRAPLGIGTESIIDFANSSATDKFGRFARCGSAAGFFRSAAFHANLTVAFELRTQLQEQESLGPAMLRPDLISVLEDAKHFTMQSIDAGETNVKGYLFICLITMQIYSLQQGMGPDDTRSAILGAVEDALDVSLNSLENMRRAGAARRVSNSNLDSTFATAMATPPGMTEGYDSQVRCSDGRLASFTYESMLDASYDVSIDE

BbBrlA = biological target: T2, BbBrlA (Beauveria bassiana, UniProt J5JC27 1-370); test: EMSA; shift lost with 200-fold unlabeled probe; LightShift Chemiluminescent EMSA kit, manufacturer's instructions; buffer, salt, pH and temperature not given; conditions: protein: recombinant; tags: GST; label: biotin; blunt
T2 sequence: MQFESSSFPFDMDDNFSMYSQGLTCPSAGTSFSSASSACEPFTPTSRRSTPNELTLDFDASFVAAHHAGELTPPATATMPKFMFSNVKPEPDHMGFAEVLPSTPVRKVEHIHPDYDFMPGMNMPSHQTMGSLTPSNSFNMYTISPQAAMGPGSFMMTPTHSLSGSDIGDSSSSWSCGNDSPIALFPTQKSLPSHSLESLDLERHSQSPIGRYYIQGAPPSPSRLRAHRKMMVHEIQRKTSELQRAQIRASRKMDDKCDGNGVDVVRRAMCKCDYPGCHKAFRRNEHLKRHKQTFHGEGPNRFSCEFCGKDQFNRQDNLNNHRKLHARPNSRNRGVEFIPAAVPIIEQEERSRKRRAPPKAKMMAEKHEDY

Binder | binding result (BbCmr1) | binding result (BbBrlA)
B1 | binds | 
B2 |  | binds
